Positions count from the first letter of the chain named. Names may count otherwise.
Legend:
[1] = target: T1, human glycogen synthase 1 (GS1) W18A (human, UniProt P13807 1-737, W18A, phosphorylation at S8, S641 and S641/S645 probed by immunoblot (Fig. 4b)); assay: co-purification (HisTrap, TEV cleavage, Ni subtraction, Superdex200 gel filtration); GS WT or mutant co-expressed with GN(Y195F) in insect cells, both with N-terminal His6-TEV; lysate loaded on the HisTrap column; details: partners not purified
T1 construct: glycogen synthase 1 (muscle), human, encoded by GYS1, cDNA NM 002103; also called GS W18A; not shown: His6, N-terminal, cleaved
T1 sequence (looked up): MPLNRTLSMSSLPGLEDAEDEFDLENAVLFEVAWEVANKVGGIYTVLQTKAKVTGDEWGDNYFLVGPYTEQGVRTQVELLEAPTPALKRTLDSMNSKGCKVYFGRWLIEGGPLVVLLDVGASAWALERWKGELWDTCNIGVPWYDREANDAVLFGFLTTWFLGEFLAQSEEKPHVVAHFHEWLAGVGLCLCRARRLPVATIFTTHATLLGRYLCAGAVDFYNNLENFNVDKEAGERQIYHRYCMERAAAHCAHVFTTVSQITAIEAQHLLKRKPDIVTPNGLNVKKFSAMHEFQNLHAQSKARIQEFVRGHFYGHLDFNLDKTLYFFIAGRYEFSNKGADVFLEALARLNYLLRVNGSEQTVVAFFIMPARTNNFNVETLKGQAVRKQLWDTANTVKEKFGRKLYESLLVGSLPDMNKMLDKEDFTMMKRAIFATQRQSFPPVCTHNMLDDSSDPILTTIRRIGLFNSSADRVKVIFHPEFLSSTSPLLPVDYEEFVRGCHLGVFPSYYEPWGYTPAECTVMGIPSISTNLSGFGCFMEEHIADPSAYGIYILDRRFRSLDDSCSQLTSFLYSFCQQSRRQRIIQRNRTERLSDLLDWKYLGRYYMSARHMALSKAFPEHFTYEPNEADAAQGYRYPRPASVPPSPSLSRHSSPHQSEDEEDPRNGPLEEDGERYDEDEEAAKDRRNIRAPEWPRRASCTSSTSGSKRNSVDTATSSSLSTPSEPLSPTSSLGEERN

[2] = target: T2, human glycogen synthase 1 (GS1) Y600A (human, UniProt P13807 1-737, Y600A, phosphorylation at S8, S641 and S641/S645 probed by immunoblot (Fig. 4b)); assay: as above; details: partners not purified
T2 construct: glycogen synthase 1 (muscle), human, encoded by GYS1, cDNA NM 002103; also called GS Y600A; not shown: His6, N-terminal, cleaved
T2 sequence (looked up): T1 sequence (looked up) with A18W, Y600A

[3] = target: T3, human glycogen synthase 1 (GS1) R588A + R591A (human, UniProt P13807 1-737, R588A | R591A, phosphorylation at S8, S641 and S641/S645 probed by immunoblot (Fig. 4b)); assay: as above; details: partners not purified
T3 construct: glycogen synthase 1 (muscle), human, encoded by GYS1, cDNA NM 002103; also called GS R588A + R591A double mutant; not shown: His6, N-terminal, cleaved
T3 sequence (looked up): T1 sequence (looked up) with A18W, R588A, R591A

[4] = target: the molecule itself; assay: negative-stain electron microscopy; purified co-expressed complex at 0.01-0.02 mg/mL in 25 mM HEPES pH 7.5, 150 mM NaCl, 1 mM TCEP, 10% glycerol; uranyl acetate stain; 2D classes and 3D map (C1, ~22 Å)

binding result [1]: binds
binding result [2]: binds
binding result [3]: binds
B1: human glycogenin 1 (GN1) Y195F, full length, non-glucosylated (enzyme, UniProt P46976-2 1-333, looked up)
chain: MTDQAFVTLTTNDAYAKGALVLGSSLKQHRTTRRLVVLATPQVSDSMRKVLETVFDEVIMVDVLDSGDSAHLTLMKRPELGVTLTKLHCWSLTQYSKCVFMDADTLVLANIDDLFDREELSAAPDPGWPDCFNSGVFVYQPSVETYNQLLHLASEQGSFDGGDQGILNTFFSSWATTDIRKHLPFIYNLSSISIFSYLPAFKVFGASAKVVHFLGRVKPWNYTYDPKTKSVKSEAHDPNMTHPEFLILWWNIFTTNVLPLLQQFGLVKDTCSYVNVEDVSGAISHLSLGEIPAMAQPFVSSEERKERWEQGQADYMGADSFDNIKRKLDTYLQ
notes: glycogenin 1, human, encoded by GYG1, cDNA NM 001184720, full length; expected ~37.5 kDa; the C-terminal GN34 region is modelled as residues 300-332, which fits the 333-residue isoform; Cloned in pFL (with untagged GS) and in pFastBac (co-infected with His6-TEV-GS WT or mutants); Both carry an N-terminal His6 tag and a cleavable site, so they are treated as one molecule; also called GN(Y195F); GN …
stoichiometry N [4]: 2

Reference: publication PMC9188544, “Mechanism of glycogen synthase inactivation and interaction with glycogenin” (Nature Communications, 2022)
